Results taken from US20220112291A1 (Pfizer, published 2022).
Residue numbers refer to the chain shown, from its start. Names and notes keep the numbering of the source. Blank lines part the entries; values can stand above or below the binder they belong to.

Experiments:
[1] = molecular target: T1, human single-chain CD1a-β2M recombinant protein (Human B2M-CD1a ECD-Avi-His6) (human); experiment: competition ELISA on plate-coated CD1a protein; competitor: biotinylated parental chimeric Ab40 at a fixed concentration; streptavidin-HRP, OD450
T1 construct: Biotinylated in the HTRF, phage selection and Gyrolab assays; also called human CD1a; CD1a protein
Protocol: For competition ELISA, high-binding Costar ELISA plates were coated with 0.1 μg per well (100 μL of 1 μg/mL) CD1a protein in PBS buffer overnight at 4° C. Plates were then washed and blocked for 3 hours with PBS+3% bovine serum albumin (BSA) at room temperature. […] After 2 hours incubation, plates were washed and incubated for 1 hour with streptavidin-HRP secondary reagent. After washing, plates were incubated with one-component HRP substrate and the developed color measured at 450 nm using Envision plate reader (Perkin Elmer).

[2] = molecular target: human CD1a expressed on cells (human, UniProt P06126 17-327); experiment: cell-based or functional assay
[3] = molecular target: T1, human single-chain CD1a-β2M recombinant …; experiment: SPR (Biacore), IgG; antigen taken as human CD1a

T1 sequence (chain, as listed by the source limits assumed): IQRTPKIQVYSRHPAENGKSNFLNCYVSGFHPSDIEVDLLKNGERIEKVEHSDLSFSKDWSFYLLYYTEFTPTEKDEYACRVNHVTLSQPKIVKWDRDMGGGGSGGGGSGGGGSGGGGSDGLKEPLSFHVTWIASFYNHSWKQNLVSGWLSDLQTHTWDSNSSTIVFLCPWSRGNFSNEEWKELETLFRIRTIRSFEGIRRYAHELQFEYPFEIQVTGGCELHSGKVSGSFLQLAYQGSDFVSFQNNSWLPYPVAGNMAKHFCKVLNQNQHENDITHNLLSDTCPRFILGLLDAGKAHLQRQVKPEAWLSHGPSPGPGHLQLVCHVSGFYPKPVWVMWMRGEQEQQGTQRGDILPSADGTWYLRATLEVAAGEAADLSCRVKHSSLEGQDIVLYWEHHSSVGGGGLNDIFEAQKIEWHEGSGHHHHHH
Sequence of human CD1a expressed on cells (P06126 17-327): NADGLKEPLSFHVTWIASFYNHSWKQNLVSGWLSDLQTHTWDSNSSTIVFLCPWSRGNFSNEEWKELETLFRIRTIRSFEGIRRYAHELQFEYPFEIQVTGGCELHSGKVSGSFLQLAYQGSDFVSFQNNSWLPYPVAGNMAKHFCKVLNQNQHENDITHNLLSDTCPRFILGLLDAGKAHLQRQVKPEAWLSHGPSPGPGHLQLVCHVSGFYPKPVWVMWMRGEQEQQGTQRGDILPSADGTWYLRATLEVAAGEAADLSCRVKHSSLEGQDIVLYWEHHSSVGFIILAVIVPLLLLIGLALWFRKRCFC

B1: Ab138 (antibody, human IgG1, kappa, V domains shown)
VH: EVQLVESGGGLVQPGGSLRLSCAASGFTFTDFYMNWVRQAPGKGLEWVAFIRNKANGYTTESNPSVKGRFTISRDNAKNSLYLQMNSLRAEDTAVYYCARETTGIPTGWFAYWGQGTLVTVSS
VL: DIQMTQSPSSLSASVGDRVTITCLASEDISNDLAWYQQKPGKAPKLLIYGANRLKDGVPSRFSGSGSGTDYTLTISSLQPEDFATYYCQQSYKYPYTFGQGTKLEIKR
notes: Humanized variant of chimeric Ab40; human IgG1 (L234A/L235A/G237A, effector function null) / human kappa; heavy chain can be prepared with or without the terminal lysine; Tb-labeled in the HTRF assay; also called humanized anti-CD1a antibody Ab138; parental Ab138
IC50 [1]: 1.94 nM
Inhibition of CD69 expression, IC50 [2]: 1.97 nM
Kd [3]: 3.87 nM

B2: Ab556 (antibody, human IgG1, kappa, V domains shown)
VH: B1 VH with F32H, N35H, K54S, N56G, S65A, G104R
VL: B1 VL with S30Y, N31F, A51G, N52D, D56E, Y92E, K93S
notes: Optimized variant of Ab138; human IgG1 effector null / kappa; HC with or without terminal lysine
Inhibition of CD69 expression, IC50 [2]: 0.73 nM
Kd [3]: 0.1 nM

B4: Ab657 (antibody, human IgG1, kappa, V domains shown)
VH: B1 VH with F32H, N35H, F50H, I51T, N53D, N56G, S65A, G104R
VL: B1 VL with S30Y, N31F, N52S, R53T, L54P, Y92E
notes: as for B2
Inhibition of CD69 expression, IC50 [2]: 0.51 nM
Inhibition of IL-2 production, IC50 [2]: 0.19 nM
Kd [3]: 0.41 nM

B5: Ab656 (antibody, human IgG1, kappa, V domains shown)
VH: B1 VH with T28D, F32H, N35H, F50H, I51T, N53D, N56G, S65A, G104R
VL: B1 VL with S30Y, N31F, A51G, N52D, K55Q, D56E, K93S
notes: as for B2
Inhibition of CD69 expression, IC50 [2]: 0.48 nM
Inhibition of IL-2 production, IC50 [2]: 0.22 nM
Kd [3]: 0.54 nM

B7: Ab560 (antibody, human IgG1, kappa, V domains shown)
VH: B1 VH with F32H, N35H, N56G, S65A, G104T
VL: B1 VL with S30Y, N31F, A51G, N52D, D56E, Y92E, K93S
notes: as for B2
Inhibition of CD69 expression, IC50 [2]: 1.61 nM
Kd [3]: 0.35 nM

B8: Ab559 (antibody, human IgG1, kappa, V domains shown)
VH: B1 VH with F32H, N35H, N56G, S65A, G104T
VL: B1 VL with S30Y, N31F, A51G, N52D, D56E, K93S
notes: as for B2
Inhibition of CD69 expression, IC50 [2]: 1.29 nM
Kd [3]: 0.39 nM

B9: Ab572 (antibody, human IgG1, kappa, V domains shown)
VH: B1 VH with F32H, N35T, N56G, S65A
VL: B1 VL with S30Y, N31F, A51G, N52D, D56E, Y92E, K93S
notes: as for B2
Inhibition of CD69 expression, IC50 [2]: 0.85 nM
Kd [3]: 0.39 nM

B10: Ab504 (antibody, human IgG1, kappa, V domains shown)
VH: B1 VH with F32H, N35H, N56G, S65A
VL: B1 VL with S30Y, N31F, A51G, N52D, Y92E, K93S
notes: as for B2
Inhibition of CD69 expression, IC50 [2]: 1.69 nM
Kd [3]: 0.53 nM

B11: Ab689 (antibody, human IgG1, kappa, V domains shown)
VH: B1 VH with F32H, N35H, F50H, I51T, N53D, N56G, S65A, G104R
VL: B1 VL with S30Y, N31F, A51G, N52D, K55Q, D56E, K93S
notes: as for B2
Inhibition of CD69 expression, IC50 [2]: 0.41 nM
Inhibition of IL-2 production, IC50 [2]: 0.17 nM
Kd [3]: 3.59 nM

B13: Ab555 (antibody, human IgG1, kappa, V domains shown)
VH: B1 VH with F32H, N35H, K54S, N56G, S65A, G104R
VL: B1 VL with S30Y, N31F, A51G, N52D, D56E, K93S
notes: as for B2
Inhibition of CD69 expression, IC50 [2]: 0.99 nM
Kd [3]: 0.27 nM

B16: Ab599 (antibody, human IgG1, kappa, V domains shown)
VH: B1 VH with F32H, N35H, A49G, F50H, R52S, N53G, K54S, N56G, S65A, G104R
VL: B1 VL with S30Y, N31F, A51G, N52D, D56E, Y92E, K93S
notes: as for B2
Inhibition of CD69 expression, IC50 [2]: 0.3 nM
Inhibition of IL-2 production, IC50 [2]: 0.08 nM
Kd [3]: 0.52 nM

B17: Ab660 (antibody, human IgG1, kappa, V domains shown)
VH: B1 VH with F32H, N35H, A49G, F50H, K54A, N56G, S65A, G104R
VL: B1 VL with S30Y, N31F, N52S, R53T, L54P, Y92E
notes: as for B2
Inhibition of CD69 expression, IC50 [2]: 0.33 nM
Inhibition of IL-2 production, IC50 [2]: 0.15 nM
Kd [3]: 0.57 nM

B19: Ab491 (antibody, human IgG1, kappa, V domains shown)
VH: B1 VH with F32H, N35T, S65A
VL: B1 VL with S30Y, N31F, A51G, N52D, D56E, K93S
notes: as for B2
Inhibition of CD69 expression, IC50 [2]: 1.18 nM
Kd [3]: 0.62 nM

B20: Ab609 (antibody, human IgG1, kappa, V domains shown)
VH: B1 VH with T30E, F32H, N35H, F50H, I51T, N53D, N56G, S65A, G104R
VL: B1 VL with S30Y, N31F, A51G, N52D, D56E, Y92E, K93S
notes: as for B2
Inhibition of CD69 expression, IC50 [2]: 0.39 nM
Inhibition of IL-2 production, IC50 [2]: 0.12 nM
Kd [3]: 0.56 nM

B23: Ab673 (antibody, human IgG1, kappa, V domains shown)
VH: B1 VH with F32H, N35H, F50H, I51T, N53D, N56G, S65A, G104R
VL: B1 VL with S30Y, N31F, A51G, N52D, D56E, K93S
notes: as for B2
Inhibition of CD69 expression, IC50 [2]: 0.3 nM
Inhibition of IL-2 production, IC50 [2]: 0.18 nM
Kd [3]: 0.21 nM

B24: Ab610 (antibody, human IgG1, kappa, V domains shown)
VH: B1 VH with T28D, F32H, N35H, F50H, I51T, N53D, N56G, S65A, G104R
VL: B1 VL with S30Y, N31F, A51G, N52D, D56E, Y92E, K93S
notes: as for B2
Inhibition of CD69 expression, IC50 [2]: 0.44 nM
Inhibition of IL-2 production, IC50 [2]: 0.09 nM
Kd [3]: 0.21 nM

Further lines, results first:

Inhibition of CD69 expression, IC50 [2]: 0.38 nM
Inhibition of IL-2 production, IC50 [2]: 0.14 nM
Kd [3]: 0.32 nM
B3: Ab585 (antibody, human IgG1, kappa, V domains shown)
VH: B1 VH with F32H, N35H, A49G, F50H, R52S, N53G, K54S, N56G, S65A, G104R
VL: B1 VL with S30Y, N31F, N52S, R53T, L54P, Y92E
notes: as for B2

Inhibition of CD69 expression, IC50 [2]: 0.42 nM
Inhibition of IL-2 production, IC50 [2]: 0.12 nM
Kd [3]: 1.22 nM
B6: Ab681 (antibody, human IgG1, kappa, V domains shown)
VH: B1 VH with F32H, N35H, F50H, I51T, N53D, N56G, S65A, G104R
VL: B1 VL with S30Y, N31F, A51G, N52D, K55Q, D56E, Y92E, K93S
notes: as for B2

Inhibition of CD69 expression, IC50 [2]: 0.73 nM
Kd [3]: 0.27 nM
B12: Ab579 (antibody, human IgG1, kappa, V domains shown)
VH: B1 VH with F32H, N35T, K54S, N56G, S65A, G104R
VL: B1 VL with S30Y, N31F, A51G, N52D, D56E, K93S
notes: as for B2

Inhibition of CD69 expression, IC50 [2]: 0.35 nM
Inhibition of IL-2 production, IC50 [2]: 0.17 nM
Kd [3]: 1.3 nM
B14: Ab624 (antibody, human IgG1, kappa, V domains shown)
VH: B1 VH with T28D, F32H, N35H, F50H, I51T, N53D, N56G, S65A, G104R
VL: B1 VL with S30Y, N31F, A51G, N52D, D56E, K93S
notes: as for B2

Inhibition of CD69 expression, IC50 [2]: 0.35 nM
Inhibition of IL-2 production, IC50 [2]: 0.17 nM
Kd [3]: 0.56 nM
B15: Ab623 (antibody, human IgG1, kappa, V domains shown)
VH: B1 VH with T30E, F32H, N35H, F50H, I51T, N53D, N56G, S65A, G104R
VL: B1 VL with S30Y, N31F, A51G, N52D, D56E, K93S
notes: as for B2

Inhibition of CD69 expression, IC50 [2]: 0.99 nM
Kd [3]: 0.28 nM
B18: Ab514 (antibody, human IgG1, kappa, V domains shown)
VH: B1 VH with F32H, N35H, K54S, N56G, S65A, G104R
VL: B1 VL with S30Y, N31F, N52S, R53T, L54P, Y92E
notes: as for B2

Inhibition of CD69 expression, IC50 [2]: 1.18 nM
Kd [3]: 0.77 nM
B21: Ab492 (antibody, human IgG1, kappa, V domains shown)
VH: B1 VH with F32H, N35T, S65A
VL: B1 VL with S30Y, N31F, A51G, N52D, D56E, Y92E, K93S
notes: as for B2

Inhibition of CD69 expression, IC50 [2]: 0.41 nM
Inhibition of IL-2 production, IC50 [2]: 0.11 nM
Kd [3]: 0.46 nM
B22: Ab616 (antibody, human IgG1, kappa, V domains shown)
VH: EVQLVESGGGLVQPGGSLRLSCAASGFTFEDHYMHWVRQAPGKGLEWVGHISGSAGGYTTESNPAVKGRFTISRDNAKNSLYLQMNSLRAEDTAVYYCARETTRIPTGWFAYWGQGTLVTVSS
VL: B1 VL with S30Y, N31F, A51G, N52D, D56E, K93S
notes: as for B2
